In US7772181B2, “Personal care compositions comprising modified variant Bowman Birk Protease Inhibitors” (Danisco US Inc., priority 2008, dated 2010):

What was measured:
TGFβ = TGFβ (Homo sapiens, UniProt P01137); experiment: BioVeris competition binding assay, TGFβ; conditions: Target protein TGFβ1, concentration reducing BioVeris signal by one half, read-out: BioVeris Binding (apparent IC50)
Protocol: (§1) The resulting vectors were used to transform B. subtilis BG6006 host cells. Cultures were grown in 500 ml of MBD medium and the BBI species were purified essentially as described above and by Vogtentanz et al., 2007 (Protein Expr Purif 55:40-52 [2007]). BioVeris binding assays were performed essentially as outlined in Example 5 and by the manufacturer. Binding of the modified variant BBIs to their respective target proteins was measured using a BioVeris® binding assay, which is a competition assay that determines the binding of the modified variant BBIs to its target protein (e.g. VEGF, FGF5, TGFβ and TNFα) in the presence or absence of a labeled competitor. The competitor can be a labeled monoclonal antibody raised against the target protein or a labeled native receptor of the target protein. The electrochemiluminescent binding assays were performed essentially as described in Example 5. The apparent IC50s were determined from binding data by determining the concentration of the BBI species needed to reduce the BioVeris signal by one half. BBI scaffolds without the target binding peptide in the chymotrypsin inhibitory loop were used as negative controls.

VegF = target: T1, VegF (UniProt P15692); experiment: BioVeris electrochemiluminescence competition binding assay, VEGF; conditions: for competition with Anti-VegF antibody for binding to VegF (ECL signal): labeled Anti-VegF antibody, biotinylated VegF
T1 sequence (P15692 207-395): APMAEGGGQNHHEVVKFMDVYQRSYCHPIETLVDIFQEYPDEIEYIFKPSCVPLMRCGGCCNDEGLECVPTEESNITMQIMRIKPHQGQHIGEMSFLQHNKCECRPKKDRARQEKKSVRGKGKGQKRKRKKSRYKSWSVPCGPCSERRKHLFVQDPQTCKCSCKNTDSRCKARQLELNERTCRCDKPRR
Protocol: Briefly, after cleavage, the pH of the cleaved sample was adjusted to 5.5, the sample was then loaded onto the column (equilibrated with 25 mM MES pH 5.5). The free 2BBIck81 was washed through the column using 25 mM sodium acetate pH 5.0 while the BCE103 catalytic core remained bound to the resin. The 2BBIck81 fraction was concentrated by ultrafiltration and analyzed using an electrochemiluminescence (ECL) based binding assay (BioVeris). The Anti-VegF antibody (Santa Cruz) and VegF (PeproTech) were labeled with the electrochemiluminescent dye and biotin, respectively, as described by the manufacturer (BioVeris). All materials were in Dulbecco's PBS (Mediatech) supplemented with 0.1% TWEEN®-80. An initial dilution series of Anti-VegF antibody (125, 250 and 500 ng/ml) and VegF (100, 150, 200 and 250 ng/ml) were tested in the binding assay to determine the concentrations of each that would give a robust ECL signal.
For testing 2BBIck81 binding, 50 μL of 500 ng/ml ECL labeled Anti-VegF antibody, 50 μL of 250 ng/ml biotinylated VegF and 100 μL 2BBIck81 (series of 12.5, 15, 31.25, 62.5, 125, 250 or 500 ng/ml) were incubated at room temperature for 2 h with shaking. Then, 50 μL of 0.2 mg/ml streptavidin coated beads were added and the reaction was incubated at room temperature for 30 minutes. The ECL signal was measured using a BioVeris M8/384 Analyzer as described by the manufacturer (BioVeris).
as §1

[1] = target: T2, bovine pancreatic trypsin (Bos taurus, UniProt P00760); experiment: Trypsin inhibitory assay (BBI activity); type: biochemical
T2 construct: purchased Worthington (Worthington Biochemical Corp.)
T2 sequence (P00760 24-246): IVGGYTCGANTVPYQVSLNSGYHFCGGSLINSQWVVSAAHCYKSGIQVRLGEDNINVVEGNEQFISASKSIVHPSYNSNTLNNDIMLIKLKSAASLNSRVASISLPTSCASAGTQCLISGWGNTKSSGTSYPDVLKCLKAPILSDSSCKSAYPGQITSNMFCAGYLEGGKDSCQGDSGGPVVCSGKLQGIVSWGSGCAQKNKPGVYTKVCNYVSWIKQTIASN
Protocol: (§2) Trypsin inhibitory assays were performed in Assay Buffer to determine the BBI activity. Specifically, a standard curve was generated by making eleven 1:1 serial dilutions (100 μL BBI+100 μL Assay Buffer) of a 2 μg/mL standard BBI solution. The BBI standard was purified from a 1 mg/ml Trypsin-Chymotrypsin Inhibitor (Sigma Cat. #T-9777) solution in 20 mM MES pH 6.0 using a hydrophobic interaction column (POROS HP2, Phenyl column, Applied Biosystems). The column was equilibrated with 20 mM MES pH 6.0, loaded with 5 mg of the inhibitor, washed with the equilibration buffer, and then the BBI was eluted with water. Unknown BBI samples to be tested in the inhibitory assay were diluted as necessary, so that two or more data points would fall within the standard curve (usually 1:10, 1:100, 1:200, 1:1000, 1:2000 sample dilutions were tested and then the dilutions fine tuned if necessary). […] After the incubation, 100 μL of the 0.5 mg/ml trypsin substrate (diluted in Assay Buffer from a 100 mg/ml solution in DMSO), Suc-AAPR-pNA (succinyl-Ala-Ala-Pro-Arg-para-nitroanilide, Bachem), was added, mixed and the OD (A405) was monitored for 15 min, with 1 time point recorded every 12 sec using a Spectra Max 250 (Molecular Devices). […] The BBI concentration of the unknown samples was calculated from the standard curve. Alternatively, the BBI activity was measured using the same protocol but by determining bovine pancreatic chymotrypsin (Worthington) inhibition (chymotrypsin was used at the same concentration as trypsin and chymotrypsin activity was measured by adding 100 μL of a 0.4 mg/ml chymotrypsin substrate, succinyl-Ala-Ala-Pro-Phe-para-nitroanilide, Bachem).
The relative concentration of active control and modified BBIt-AV's was determined by a trypsin inhibitory assay using purified sBBI as a standard as described above. For some samples, the active BBI concentration was measured by residual trypsin activity according to the method described by Flecker (Flecker, P. FEBS Lett. 252:153-157 [1989]; Vogtentanz et al. supra). […]

human CD4+ T cells = experiment: i-mune assay for peptide T-cell epitopes; type: cell-based
Protocol: The i-mune® assay was performed for the identification of peptide T-cell epitopes in wild type BBI using naïve human T-cells, as described in WO9953038A2 and Stickler et al, 2000 (J. Immunotherapy, 23(6), 654-660, [2000]). Peptides for use in the assay were prepared based on the wild-type BBI amino acid sequence […] CYEPCKPSEDDKEN (SEQ ID NO:13). From the full length amino acid sequence of BBI, 15mer peptides were synthetically prepared by Mimotopes US West (San Diego, Calif.). Each 15mer peptide sequence was designed to overlap with the previous and subsequent 15mer, except for three residues. The 20 peptides used to screen for T-cell epitopes, corresponding to wild type BBI sequence, were:
Briefly, human CD4+ T cells were co-cultured with dendritic cells and peptide for the intact peptide set, using the peptides shown in Figure Y. Cytokine responses were averaged within each experiment as described in Strickler et al, 2000 and a response to a peptide was tabulated as positive if the stimulation index (SI) was greater than 2.95 (FIG. 18A). SI values for each donor were compiled for each peptide set and the percent of donors responsive to each peptide is shown in FIG. 18B. The percent background response, 2.89%, was determined as the average percent responders over all the peptides in the set. The standard deviation for this dataset was 2.21%. Major epitopes are defined as having a percentage response that is 3-fold or more than the background.

[2] = target: T3, bovine pancreatic chymotrypsin (Bos taurus, UniProt P00766); experiment: Chymotrypsin inhibition assay (BBI activity); type: biochemical; conditions: BCE103 fusion protein in cell free broth
T3 construct: purchased Worthington
Protocol: as §2, with “water.” for “water. Unknown BBI samples to be tested in the inhibitory assay were diluted as necessary, so that two or more data points would fall within the standard curve (usually 1:10, 1:100, 1:200, 1:1000, 1:2000 sample dilutions were tested and then the dilutions fine tuned if necessary).”

[3] = target: T2, bovine pancreatic trypsin; experiment: Shake flask screen: trypsin inhibition after growth, 2-mercaptoethanol activation and acid/heat treatment; type: biochemical; conditions: when not activated

TGFβ, sequence (P01137 279-390): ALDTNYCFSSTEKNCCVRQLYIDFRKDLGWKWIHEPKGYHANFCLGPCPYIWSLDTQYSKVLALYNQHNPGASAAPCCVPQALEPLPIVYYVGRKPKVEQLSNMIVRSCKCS

B1: PEN3-Q-BBIt-TGF-A40L-F50N (SEQ ID NO: 677) (protein)
chain: PSESSKPCCDQCACTKSIPPQCRCTDVRLNSCHSACSSCACYNLYGWTCVCVDMKDFCYEPCK
modifications: synthetic BBdb-AV sequence
IC50 (TGFβ): 10 to 50 µM

B2: BBI-AV: BBI with VEGF binding peptide CK37281 replacing the chymotrypsin inhibitory loop, SEQ ID NO:186 (protein)
chain: DDESSKPCCDQCACTKSNPPQCRCSDMRLNSCHSACKSCACYNLYGWTCFCVDITDFCYEPCKPSEDDKEN
modifications: synthetic BBI-AV sequence
competition for VegF binding compared with synthesized CK37281 peptide (VegF): better than the synthesized CK37281 peptide itself | competition with Anti-VegF antibody for binding to VegF (ECL signal) (VegF): shown to compete | competition with Anti-VegF antibody for binding to VegF (ECL signal) (VegF; listed as 2BBIck81): competed with the Anti-VegF antibody for binding to VegF at micromolar concentrations | activity of the BBI (trypsin inhibition) relative to fusions to the wild-type BBI ([1]; BCE103 fusion protein in cell free broth): about two fold less

B3: BBI: soybean Bowman-Birk protease inhibitor from Glycine max, major mature form, SEQ ID NO:13 (protein)
chain: DDESSKPCCDQCACTKSNPPQCRCSDMRLNSCHSACKSCICALSYPAQCFCVDITDFCYEPCKPSEDDKEN
modifications: Glycine max
activated trypsin inhibitory activity, % of expected based on BCE103 cellulase concentration ([1]; 2 mM BME and 0.2 mM GSSG, about 24 h, room temperature): 70-100% | activity of the BBI after growth versus expected from BCE103 cellulase activity ([1]; cell free supernatants, trypsin or chymotrypsin inhibition, before activation): 5-20 times lower | immunogenicity potential in humans (human CD4+ T cells): low immunogenicity potential | percent background response (average percent responders over all the peptides) (human CD4+ T cells; 20 overlapping 15mer peptides, 71 donors): 2.89% | peptide T-cell epitope responses (human CD4+ T cells; stimulation index > 2.95 positive, major epitope 3-fold or more over background): none of the peptide responses were significant

B4: 1 BBIck81: BBI with the CK37281 peptide in the trypsin loop (protein)
chain: DDESSKPCCDQCACYNLYGWTCRCSDMRLNSCHSACKSCICALSYPAQCFCVDITDFCYEPCKPSEDDKEN
competition with Anti-VegF antibody for binding to VegF (ECL signal) (VegF): also competed with the Anti-VegF antibody | activity of the BBI (chymotrypsin inhibition) relative to fusions to the wild-type BBI [2]: about two fold less

B5: D1C: BBIt-AV (SEQ ID NO:187) with single substitution D1C (protein)
chain: CDESSKPCCDQCACTKSNPPQCRCSDMRLNSCHSACKSCACYNLYGWTCFCVDITDFCYEPCKPSE
modifications: synthetic BBIt-AV sequence
BBIt-AV yield after acid/heat treatment relative to unmodified BBIt-AV [3]: improved yields after acid/heat treatment
